# T1: NT-biotin hepcidin-25 (NT-biotin (biotin label; NT is not spelled out, taken as the N-terminus))
# T1 peptide: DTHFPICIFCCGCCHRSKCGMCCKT
# T2: K18-biotin hepcidin-25 (biotin on K18)
# T2 peptide: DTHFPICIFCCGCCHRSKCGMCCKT
# B1: murine anti-hepcidin MAb 583 (antibody, V domains shown)
# VH: QIQLVQSGPELKKPGETVKISCKASGYTFTNYGMNWVKQAPGKGLKWMGWINTYTGEPTYADDFKGRFAFSLETSASTAYLQINNLKNEDTATYFCTTYATSWYWGQGTTLTVSS
# VL: DIVLTQSPASLAVSLGQRATISCRASESVDSYGNSFMHWYQQKPGQPPKLLIYRASNLESGIPARFSGSGSRTDFTLTINPVEADDVATYYCQQSNEDLTFGGGTKLEIK
# Legend:
# [1] = molecular target: T1, NT-biotin hepcidin-25; test: Biacore (SPR); 5 µg/ml 583
# [2] = molecular target: T2, K18-biotin hepcidin-25; test: Biacore (SPR); 5 µg/ml 583
binder,measurement,setting,value
B1,Ka,[1],5.47e+10 M⁻¹
same,Ka,[2],1.34e+11 M⁻¹

# — patent US20170283495A1 (published 2017)
